Results from patent publication US11965039B2, “Compstatin analogues and their medical uses” (priority 2018, dated 2024).
Positions of bridges follow the written chain, without caps; N, C: chain ends. Non-standard residues stand in square brackets, D forms with d. Trp(1-Me) = Cn1cc(C[C@H](N)C(=O)O)c2ccccc21; Sar = CNCC(=O)O

B1: Compound 77 (peptide)
peptide: Ac-SEFCI[Trp(1-Me)]QDW[Sar]EHRCTEA-NH2
modifications: disulfide 4-14
SMILES: CC[C@H](C)[C@@H]1NC(=O)[C@@H](NC(=O)[C@H](Cc2ccccc2)NC(=O)[C@H](CCC(=O)O)NC(=O)[C@H](CO)NC(C)=O)CSSC[C@@H](C(=O)N[C@H](C(=O)N[C@@H](CCC(=O)O)C(=O)N[C@@H](C)C(N)=O)[C@@H](C)O)NC(=O)[C@H](CCCNC(=N)N)NC(=O)[C@H](Cc2c[nH]cn2)NC(=O)[C@H](CCC(=O)O)NC(=O)CN(C)C(=O)[C@H](Cc2c[nH]c3ccccc23)NC(=O)[C@H](CC(=O)O)NC(=O)[C@H](CCC(N)=O)NC(=O)[C@H](Cc2cn(C)c3ccccc23)NC1=O
B2: Compound 79 (peptide)
peptide: Ac-SEFCI[Trp(1-Me)]QDW[Sar]EHRC[Sar]E-NH2
modifications: disulfide 4-14
SMILES: CC[C@H](C)[C@@H]1NC(=O)[C@@H](NC(=O)[C@H](Cc2ccccc2)NC(=O)[C@H](CCC(=O)O)NC(=O)[C@H](CO)NC(C)=O)CSSC[C@@H](C(=O)N(C)CC(=O)N[C@@H](CCC(=O)O)C(N)=O)NC(=O)[C@H](CCCNC(=N)N)NC(=O)[C@H](Cc2c[nH]cn2)NC(=O)[C@H](CCC(=O)O)NC(=O)CN(C)C(=O)[C@H](Cc2c[nH]c3ccccc23)NC(=O)[C@H](CC(=O)O)NC(=O)[C@H](CCC(N)=O)NC(=O)[C@H](Cc2cn(C)c3ccccc23)NC1=O
B3: Compound 80 (peptide)
peptide: Ac-EFCI[Trp(1-Me)]QDWGEHRC[Sar]EA-NH2
modifications: disulfide 3-13
SMILES: CC[C@H](C)[C@@H]1NC(=O)[C@@H](NC(=O)[C@H](Cc2ccccc2)NC(=O)[C@H](CCC(=O)O)NC(C)=O)CSSC[C@@H](C(=O)N(C)CC(=O)N[C@@H](CCC(=O)O)C(=O)N[C@@H](C)C(N)=O)NC(=O)[C@H](CCCNC(=N)N)NC(=O)[C@H](Cc2c[nH]cn2)NC(=O)[C@H](CCC(=O)O)NC(=O)CNC(=O)[C@H](Cc2c[nH]c3ccccc23)NC(=O)[C@H](CC(=O)O)NC(=O)[C@H](CCC(N)=O)NC(=O)[C@H](Cc2cn(C)c3ccccc23)NC1=O
B4: Compound 76 (peptide)
peptide: Ac-SEFCI[Trp(1-Me)]QDW[Sar]EHRC[Sar]EA-NH2
modifications: disulfide 4-14
SMILES: CC[C@H](C)[C@@H]1NC(=O)[C@@H](NC(=O)[C@H](Cc2ccccc2)NC(=O)[C@H](CCC(=O)O)NC(=O)[C@H](CO)NC(C)=O)CSSC[C@@H](C(=O)N(C)CC(=O)N[C@@H](CCC(=O)O)C(=O)N[C@@H](C)C(N)=O)NC(=O)[C@H](CCCNC(=N)N)NC(=O)[C@H](Cc2c[nH]cn2)NC(=O)[C@H](CCC(=O)O)NC(=O)CN(C)C(=O)[C@H](Cc2c[nH]c3ccccc23)NC(=O)[C@H](CC(=O)O)NC(=O)[C@H](CCC(N)=O)NC(=O)[C@H](Cc2cn(C)c3ccccc23)NC1=O
B5: Compound 70 (peptide)
peptide: Ac-EGSAYCI[Trp(1-Me)]QEWGEHRC[Sar]E-NH2
modifications: disulfide 6-16
SMILES: CC[C@H](C)[C@@H]1NC(=O)[C@@H](NC(=O)[C@H](Cc2ccc(O)cc2)NC(=O)[C@H](C)NC(=O)[C@H](CO)NC(=O)CNC(=O)[C@H](CCC(=O)O)NC(C)=O)CSSC[C@@H](C(=O)N(C)CC(=O)N[C@@H](CCC(=O)O)C(N)=O)NC(=O)[C@H](CCCNC(=N)N)NC(=O)[C@H](Cc2c[nH]cn2)NC(=O)[C@H](CCC(=O)O)NC(=O)CNC(=O)[C@H](Cc2c[nH]c3ccccc23)NC(=O)[C@H](CCC(=O)O)NC(=O)[C@H](CCC(N)=O)NC(=O)[C@H](Cc2cn(C)c3ccccc23)NC1=O
B6: Compound 78 (peptide)
peptide: Ac-SEFCI[Trp(1-Me)]QDWGEHRC[Sar]E-NH2
modifications: disulfide 4-14
SMILES: CC[C@H](C)[C@@H]1NC(=O)[C@@H](NC(=O)[C@H](Cc2ccccc2)NC(=O)[C@H](CCC(=O)O)NC(=O)[C@H](CO)NC(C)=O)CSSC[C@@H](C(=O)N(C)CC(=O)N[C@@H](CCC(=O)O)C(N)=O)NC(=O)[C@H](CCCNC(=N)N)NC(=O)[C@H](Cc2c[nH]cn2)NC(=O)[C@H](CCC(=O)O)NC(=O)CNC(=O)[C@H](Cc2c[nH]c3ccccc23)NC(=O)[C@H](CC(=O)O)NC(=O)[C@H](CCC(N)=O)NC(=O)[C@H](Cc2cn(C)c3ccccc23)NC1=O
B7: Compound 72 (peptide)
peptide: Ac-FCI[Trp(1-Me)]QDW[Sar]EHRCTGAES-NH2
modifications: disulfide 2-12
SMILES: CC[C@H](C)[C@@H]1NC(=O)[C@@H](NC(=O)[C@H](Cc2ccccc2)NC(C)=O)CSSC[C@@H](C(=O)N[C@H](C(=O)NCC(=O)N[C@@H](C)C(=O)N[C@@H](CCC(=O)O)C(=O)N[C@@H](CO)C(N)=O)[C@@H](C)O)NC(=O)[C@H](CCCNC(=N)N)NC(=O)[C@H](Cc2c[nH]cn2)NC(=O)[C@H](CCC(=O)O)NC(=O)CN(C)C(=O)[C@H](Cc2c[nH]c3ccccc23)NC(=O)[C@H](CC(=O)O)NC(=O)[C@H](CCC(N)=O)NC(=O)[C@H](Cc2cn(C)c3ccccc23)NC1=O
B8: Compound 84 (peptide)
peptide: Ac-SEFCI[Trp(1-Me)]QDWGEHRCSEA-NH2
modifications: disulfide 4-14
SMILES: CC[C@H](C)[C@@H]1NC(=O)[C@@H](NC(=O)[C@H](Cc2ccccc2)NC(=O)[C@H](CCC(=O)O)NC(=O)[C@H](CO)NC(C)=O)CSSC[C@@H](C(=O)N[C@@H](CO)C(=O)N[C@@H](CCC(=O)O)C(=O)N[C@@H](C)C(N)=O)NC(=O)[C@H](CCCNC(=N)N)NC(=O)[C@H](Cc2c[nH]cn2)NC(=O)[C@H](CCC(=O)O)NC(=O)CNC(=O)[C@H](Cc2c[nH]c3ccccc23)NC(=O)[C@H](CC(=O)O)NC(=O)[C@H](CCC(N)=O)NC(=O)[C@H](Cc2cn(C)c3ccccc23)NC1=O
B9: Compound 71 (peptide)
peptide: Ac-SEYCI[Trp(1-Me)]QDWGEHRC[Sar]EA-NH2
modifications: disulfide 4-14
SMILES: CC[C@H](C)[C@@H]1NC(=O)[C@@H](NC(=O)[C@H](Cc2ccc(O)cc2)NC(=O)[C@H](CCC(=O)O)NC(=O)[C@H](CO)NC(C)=O)CSSC[C@@H](C(=O)N(C)CC(=O)N[C@@H](CCC(=O)O)C(=O)N[C@@H](C)C(N)=O)NC(=O)[C@H](CCCNC(=N)N)NC(=O)[C@H](Cc2c[nH]cn2)NC(=O)[C@H](CCC(=O)O)NC(=O)CNC(=O)[C@H](Cc2c[nH]c3ccccc23)NC(=O)[C@H](CC(=O)O)NC(=O)[C@H](CCC(N)=O)NC(=O)[C@H](Cc2cn(C)c3ccccc23)NC1=O
B10: Compound 74 (peptide)
peptide: Ac-SEFCI[Trp(1-Me)]QDWGEHRC[Sar]GAES-NH2
modifications: disulfide 4-14
SMILES: CC[C@H](C)[C@@H]1NC(=O)[C@@H](NC(=O)[C@H](Cc2ccccc2)NC(=O)[C@H](CCC(=O)O)NC(=O)[C@H](CO)NC(C)=O)CSSC[C@@H](C(=O)N(C)CC(=O)NCC(=O)N[C@@H](C)C(=O)N[C@@H](CCC(=O)O)C(=O)N[C@@H](CO)C(N)=O)NC(=O)[C@H](CCCNC(=N)N)NC(=O)[C@H](Cc2c[nH]cn2)NC(=O)[C@H](CCC(=O)O)NC(=O)CNC(=O)[C@H](Cc2c[nH]c3ccccc23)NC(=O)[C@H](CC(=O)O)NC(=O)[C@H](CCC(N)=O)NC(=O)[C@H](Cc2cn(C)c3ccccc23)NC1=O
B11: Compound 69 (peptide)
peptide: Ac-YCI[Trp(1-Me)]QDWGEHRCTESGA-NH2
modifications: disulfide 2-12
SMILES: CC[C@H](C)[C@@H]1NC(=O)[C@@H](NC(=O)[C@H](Cc2ccc(O)cc2)NC(C)=O)CSSC[C@@H](C(=O)N[C@H](C(=O)N[C@@H](CCC(=O)O)C(=O)N[C@@H](CO)C(=O)NCC(=O)N[C@@H](C)C(N)=O)[C@@H](C)O)NC(=O)[C@H](CCCNC(=N)N)NC(=O)[C@H](Cc2c[nH]cn2)NC(=O)[C@H](CCC(=O)O)NC(=O)CNC(=O)[C@H](Cc2c[nH]c3ccccc23)NC(=O)[C@H](CC(=O)O)NC(=O)[C@H](CCC(N)=O)NC(=O)[C@H](Cc2cn(C)c3ccccc23)NC1=O
B12: Compound 88 (peptide)
peptide: Ac-GE[Sar]CI[Trp(1-Me)]QDWGEHRCTEA-NH2
modifications: disulfide 4-14
SMILES: CC[C@H](C)[C@@H]1NC(=O)[C@@H](NC(=O)CN(C)C(=O)[C@H](CCC(=O)O)NC(=O)CNC(C)=O)CSSC[C@@H](C(=O)N[C@H](C(=O)N[C@@H](CCC(=O)O)C(=O)N[C@@H](C)C(N)=O)[C@@H](C)O)NC(=O)[C@H](CCCNC(=N)N)NC(=O)[C@H](Cc2c[nH]cn2)NC(=O)[C@H](CCC(=O)O)NC(=O)CNC(=O)[C@H](Cc2c[nH]c3ccccc23)NC(=O)[C@H](CC(=O)O)NC(=O)[C@H](CCC(N)=O)NC(=O)[C@H](Cc2cn(C)c3ccccc23)NC1=O
B13: Compound 83 (peptide)
peptide: Ac-SEFCI[Trp(1-Me)]QEWGEHRC[Sar]EA-NH2
modifications: disulfide 4-14
SMILES: CC[C@H](C)[C@@H]1NC(=O)[C@@H](NC(=O)[C@H](Cc2ccccc2)NC(=O)[C@H](CCC(=O)O)NC(=O)[C@H](CO)NC(C)=O)CSSC[C@@H](C(=O)N(C)CC(=O)N[C@@H](CCC(=O)O)C(=O)N[C@@H](C)C(N)=O)NC(=O)[C@H](CCCNC(=N)N)NC(=O)[C@H](Cc2c[nH]cn2)NC(=O)[C@H](CCC(=O)O)NC(=O)CNC(=O)[C@H](Cc2c[nH]c3ccccc23)NC(=O)[C@H](CCC(=O)O)NC(=O)[C@H](CCC(N)=O)NC(=O)[C@H](Cc2cn(C)c3ccccc23)NC1=O
B14: Compound 87 (peptide)
peptide: Ac-GEFCI[Trp(1-Me)]QDWGEHRC[Sar]EA-NH2
modifications: disulfide 4-14
SMILES: CC[C@H](C)[C@@H]1NC(=O)[C@@H](NC(=O)[C@H](Cc2ccccc2)NC(=O)[C@H](CCC(=O)O)NC(=O)CNC(C)=O)CSSC[C@@H](C(=O)N(C)CC(=O)N[C@@H](CCC(=O)O)C(=O)N[C@@H](C)C(N)=O)NC(=O)[C@H](CCCNC(=N)N)NC(=O)[C@H](Cc2c[nH]cn2)NC(=O)[C@H](CCC(=O)O)NC(=O)CNC(=O)[C@H](Cc2c[nH]c3ccccc23)NC(=O)[C@H](CC(=O)O)NC(=O)[C@H](CCC(N)=O)NC(=O)[C@H](Cc2cn(C)c3ccccc23)NC1=O

Target: Human C3 (Complement tech cat #A113c) (human, UniProt P01024 23-1663)
Assay: cell-based or functional assay

Sequence of Human C3 (Complement tech cat #A113c) (P01024 23-1663 limits assumed): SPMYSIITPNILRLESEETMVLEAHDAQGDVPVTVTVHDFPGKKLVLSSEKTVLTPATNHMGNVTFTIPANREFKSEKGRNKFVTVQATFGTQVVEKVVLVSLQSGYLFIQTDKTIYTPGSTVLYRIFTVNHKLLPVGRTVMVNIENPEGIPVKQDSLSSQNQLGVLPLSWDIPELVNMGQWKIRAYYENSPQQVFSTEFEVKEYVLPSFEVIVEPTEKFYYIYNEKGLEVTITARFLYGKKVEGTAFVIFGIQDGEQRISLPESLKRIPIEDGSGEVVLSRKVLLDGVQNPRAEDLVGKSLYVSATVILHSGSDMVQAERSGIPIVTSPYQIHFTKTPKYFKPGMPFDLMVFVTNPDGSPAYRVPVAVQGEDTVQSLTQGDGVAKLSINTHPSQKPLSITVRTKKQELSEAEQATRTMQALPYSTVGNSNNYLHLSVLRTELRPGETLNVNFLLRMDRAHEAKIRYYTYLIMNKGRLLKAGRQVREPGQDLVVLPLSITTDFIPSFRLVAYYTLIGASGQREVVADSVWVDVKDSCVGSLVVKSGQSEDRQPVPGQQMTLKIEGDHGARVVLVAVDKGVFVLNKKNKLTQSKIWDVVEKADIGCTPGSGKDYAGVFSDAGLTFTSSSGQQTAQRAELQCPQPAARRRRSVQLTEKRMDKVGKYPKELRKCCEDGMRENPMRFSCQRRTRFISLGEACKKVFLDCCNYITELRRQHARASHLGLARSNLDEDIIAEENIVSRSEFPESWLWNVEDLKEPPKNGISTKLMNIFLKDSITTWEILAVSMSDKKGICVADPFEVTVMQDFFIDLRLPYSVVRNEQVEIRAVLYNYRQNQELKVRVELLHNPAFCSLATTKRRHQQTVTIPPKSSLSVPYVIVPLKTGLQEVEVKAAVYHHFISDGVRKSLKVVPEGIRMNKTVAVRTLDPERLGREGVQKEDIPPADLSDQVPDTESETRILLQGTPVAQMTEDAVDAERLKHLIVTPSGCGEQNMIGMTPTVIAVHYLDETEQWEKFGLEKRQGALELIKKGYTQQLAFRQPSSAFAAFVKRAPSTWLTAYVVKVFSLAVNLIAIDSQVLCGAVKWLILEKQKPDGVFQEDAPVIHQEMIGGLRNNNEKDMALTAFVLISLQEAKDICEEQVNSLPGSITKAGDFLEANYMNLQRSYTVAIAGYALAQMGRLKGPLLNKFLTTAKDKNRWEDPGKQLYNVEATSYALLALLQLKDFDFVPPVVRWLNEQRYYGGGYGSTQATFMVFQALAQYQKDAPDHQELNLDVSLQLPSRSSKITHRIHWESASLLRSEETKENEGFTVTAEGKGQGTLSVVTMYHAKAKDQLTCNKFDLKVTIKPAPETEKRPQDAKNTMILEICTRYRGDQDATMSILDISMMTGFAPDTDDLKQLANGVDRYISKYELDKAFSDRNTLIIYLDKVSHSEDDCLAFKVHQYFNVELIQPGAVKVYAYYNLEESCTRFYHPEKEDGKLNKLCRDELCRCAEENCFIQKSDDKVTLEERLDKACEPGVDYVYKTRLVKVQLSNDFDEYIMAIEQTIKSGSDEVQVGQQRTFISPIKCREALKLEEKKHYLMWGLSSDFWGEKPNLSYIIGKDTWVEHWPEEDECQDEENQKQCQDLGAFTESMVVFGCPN

| Binder | inhibition of hemolysis IC50 [nM] |
| --- | --- |
| B1 | < 100 |
| B2 | < 100 |
| B3 | < 100 |
| B4 | < 100 |
| B5 | < 100 |
| B6 | < 100 |
| B7 | < 100 |
| B8 | < 100 |
| B9 | < 100 |
| B10 | < 100 |
| B11 | < 100 |
| B12 | < 100 |
| B13 | < 100 |
| B14 | < 100 |
